Assay results as given in patent US20210261650A1 (published 2021).

B1: SARS-CoV-2 S310 mAb (antibody, V domains shown)
VH: QVQLVQSGAELKKPGSSVKVSCKASGGTFNSYSFNWVRQAPGQGLEWLGGIIPVLGTSNYAQKFQGRVAVTADEFTTTAYMELSSLRSEDTAVYYCATRTYDSSGYRPYYYGLDVWGQGTPVTVSS
VL: QSALTQPASVSGSPGQSITISCTGTSSDVGSYNLVSWYQQRPGKAPELMIYEVTKRPSGLSNRFSGSKSGNTASLTISGLQAEDEADYYCCSYAGSDTVIFGGGTKVTVL
B2: SARS-CoV-2 S315 mAb (antibody, V domains shown)
VH: EVQLVESGGGLVQPGGSLRLSCAASGFTFSNYWMTWVRQAPGKGLEWVANIKQDGSEKYYVDSVKGRFTISRDNAKNSLYLQMNSLRAEDTAVYYCARDLWWNDQAHYYGMDVWGQGTTVTVSS
VL: SYELTQPPSVSVSPGQTARITCSGDAFPNQYAYWYQQKPGQAPVMLIYKDSERPSGIPERFFGSSSGTTVTLTIRGVQAEDEADYYCQSADSSGTVFGGGTKLTVL
B3: SARS-CoV-2 S303 mAb (antibody, V domains shown)
VH: EVQLVESGGGLVKPGGSLRLSCAASGFTFLTYSMNWVRQTPGKRLQWVSAISGSGGATYYADSVKGRFTISRDNSKNTLYLQMNTVTADDTAIYFCARERDDIFPMGLNAFDIWGQGAMVIVSS
VL: DIQMTQSPSTLSASVGDRVTITCRASQSISNWLAWYQQKPGKAPKLLIYKASSLESGVPSRFSGSGSGTEFTLTISSLQPDDSATYYCQQYDTYSWTFGQGTKVEIK
B4: SARS-CoV-2 S304 mAb (antibody, V domains shown)
VH: EVQLVESGGGLVQPGGSLRLSCAASGFTFSSYDMHWVRQTTGKGLEWVSTIGTAGDTYYPDSVKGRFTISREDAKNSLYLQMNSLRAGDTAVYYCARGDSSGYYYYFDYWGQGTLLTVSS
VL: DIQMTQSPSSLSAAVGDRVTITCRASQSIGSYLNWYQQKPGKAPKLLIYAASSLQSGVPSRFSGSGSGTDFTLTISSLQPEDFAIYYCQQSYVSPTYTFGPGTKVDIK
B5: SARS-CoV-2 S306 mAb (antibody, V domains shown)
VH: QVQLVQSGAEVKKPGASVKVSCKASTYTFTSFGISWVRQAPGQGLEWMGWITTYSGDTNYAQKFQGRVTMTTDTSTNTAYMELRSLRSDDTAVYYCASDYFDSSGYYHSFDYWGQGTLVTVSS
VL: EIVLTQSPDTLSLSPGERATLSCRASQSVSSYLAWYQQRPGQAPRLLIYDASKRATGIPARFSGSGSGTDFTLTISSLEPEDFAVYYCQQRSNWPPGCSFGQGTKVEIK

Legend:
[1] = biological target: SARS-CoV-1 S protein expressed on ExpiCHO cells (SARS-CoV-1, UniProt P59594 14-1255); test: flow
[2] = biological target: SARS-CoV-1 RBD (Sino Biological) (SARS-CoV-1, UniProt P59594 306-527); test: BLI
[3] = biological target: SARS-CoV-2 Spike (S) protein, strain BetaCoV/Wuhan-Hu-1/2019, expressed on ExpiCHO cells (UniProt P0DTC2 14-1273); test: flow

| Binder | EC50 [1] | Kd [2] | EC50 [3] |
| --- | --- | --- | --- |
| B1 | 254 ng/mL | – | – |
| B2 | 7.59 ng/mL | – | – |
| B3 | 1.06 ng/mL | 0.869 nM | – |
| B4 | 11.4 ng/mL | – | – |
| B5 | 20.8 ng/mL | – | 1.42 ng/mL |
